From paper PMC8168426 (ACS chemical biology, 2020)
Ends that are not written are not given here. * marks the point of attachment. NHCH2CH2(5-OH-indol-3-yl) = Oc1ccc2[nH]cc(CCN*)c2c1; fluorescein = fluorescein label (C-terminal); Me3 = trimethyl (trimethyl-lysine); Me2 = dimethyl (dimethyl-lysine)

T1: PHD1^287–347-KDAC8–6xHis fusion construct (UniProt P29375 287-347)
T1 sequence (looked up): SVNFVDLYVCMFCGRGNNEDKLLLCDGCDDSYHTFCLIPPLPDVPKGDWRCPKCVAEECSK

T2: GST-PHD1 (S287–K347) of histone demethylase KDM5A (UniProt P29375 287-347)
T2 sequence (looked up): T1 sequence (looked up)


target: T1, PHD1^287–347-KDAC8–6xHis fusion …; experiment: PI-SAMDI; conditions: not given

Row | binding result | Molecule
1 | binds | ARTKYTARKSGC [H3 Q5Y 12-mer ligand]
2 | binds | ARTKQTARKSGC (not fully specified; trimethyl-lysine at 9 (H3K9me3)) [H3K9me3 12-mer ligand]
3 | binds | ARTK(Me)QTARKSGC (not fully specified (C-terminus)) [H3K4me1 12-mer ligand]
4 | binds | ARTKQ(NHCH2CH2(5-OH-indol-3-yl))TARKSGC (not fully specified (C-terminus)) [Q5-serotonylated H3 12-mer ligand]
5 | binds | ARTK(Me3)QTARKSGC (not fully specified (C-terminus)) [H3K4me3 12-mer ligand]
6 | binds | ARTK(Me2)QTARKSGC (not fully specified (C-terminus)) [H3K4me2 12-mer ligand]
7 | binds | ARTKETARKSGC [H3 Q5E 12-mer ligand]
8 | binds | ARTKQTARKSGC (not fully specified (C-terminus)) [unmodified H3 12-mer ligand (first 10 N-terminal residues of H3 and a GC moiety)]

target: T1, PHD1^287–347-KDAC8–6xHis fusion …; experiment: PI-SAMDI; conditions: not given; remark: another data set of the same source

Row | binding result | Molecule
9 | binds | ARYKQC [H3 T3Y 6-mer ligand (ARXKZC with X = Y, Z = Q)]
10 | binds | ARTKSC [H3 Q5S 6-mer ligand (ARXKZC with X = T, Z = S)]
11 | binds | ARVKWC [H3 T3V Q5W 6-mer ligand (ARXKZC with X = V, Z = W)]
12 | binds | ARTKRC [H3 Q5R 6-mer ligand (ARXKZC with X = T, Z = R)]
13 | binds | ARVKRC [H3 T3V Q5R 6-mer ligand (ARXKZC with X = V, Z = R)]
14 | binds | ARYKYC [H3 T3Y Q5Y 6-mer ligand (ARXKZC with X = Y, Z = Y)]
15 | binds | ARYKRC [H3 T3Y Q5R 6-mer ligand (ARXKZC with X = Y, Z = R)]

target: T2, GST-PHD1 (S287–K347) of histone …; experiment: fluorescence polarisation; conditions: not given

Row | Ki | Molecule
16 | 0.75 µM | ARTKATARKS (peptide, UniProt P68431 2-11, looked up) [H3 Q5A 10-mer peptide]
17 | > 100 µM | ARAKQTARKS (peptide, UniProt P68431 2-11, looked up) [H3 T3A 10-mer peptide]
18 | > 100 µM | ARYKYTARKS (peptide, UniProt P68431 2-11, looked up) [H3 T3Y Q5Y 10-mer peptide]
19 | > 100 µM | ARDKQTARKS (peptide, UniProt P68431 2-11, looked up) [H3 T3D 10-mer peptide]
20 | > 100 µM | ARYKQTARKS (peptide, UniProt P68431 2-11, looked up) [H3 T3Y 10-mer peptide]
21 | > 100 µM | ARFKQTARKS (peptide, UniProt P68431 2-11, looked up) [H3 T3F 10-mer peptide]

tested on: PHD1 domain of KDM5A; experiment: not given; conditions: result in words; cited from earlier work

Row | Molecule | Binding to PHD1 as previously established
22 | N-terminally acetylated H3: N-terminally acetylated H3 12-mer peptide (Ac-ARTKQTARKSGC) | not bind PHD1
23 | H3K9me3: well-characterized H3 12-mer ligand bearing K9me3 (ARTKQTARKSGC; trimethyl-lysine at 9 (H3K9me3)) [Ligand H3K9me3] | does not impact PHD1-H3 association
24 | H3 R2A: well-characterized H3 12-mer ligand with R2A mutation (AATKQTARKSGC) | strongly reduces binding

target: T2, GST-PHD1 (S287–K347) of histone …; experiment: fluorescence polarisation; conditions: not given; remark: another data set of the same source

Row | binding result | Molecule
25 | binds | ARTKQ(NHCH2CH2(5-OH-indol-3-yl))TARKSGC (not fully specified (C-terminus)) [Q5-serotonylated H3 12-mer ligand]
26 | binds | ARTKQTARKS-fluorescein (peptide, UniProt P68431 2-11, looked up) [H3 peptide (1–10) carrying a C-terminal fluorescein label]
27 | binds | ARTKQTARKSGC (not fully specified (C-terminus)) [unmodified H3 12-mer ligand (first 10 N-terminal residues of H3 and a GC moiety)]
